# In patent publication US8148112B2, “Sugar chain containing 4-position halogenated galactose and application thereof” (National University Corporation Hokkaido University, priority 2005, dated 2012):
# B1: GalT: E. coli-derived galactose-1-phosphate uridylyltransferase, purified enzyme liquid (protein, UniProt P09148 1-348, looked up)
# Galactose-1-phosphate …: MTQFNPVDHPHRRYNPLTGQWILVSPHRAKRPWQGAQETPAKQVLPAHDPDCFLCAGNVRVTGDKNPDYTGTYVFTNDFAALMSDTPDAPESHDPLMRCQSARGTSRVICFSPDHSKTLPELSVAALTEIVKTWQEQTAELGKTYPWVQVFENKGAAMGCSNPHPHGQIWANSFLPNEAEREDRLQKEYFAEQKSPMLVDYVQRELADGSRTVVETEHWLAVVPYWAAWPFETLLLPKAHVLRITDLTDAQRSDLALALKKLTSRYDNLFQCSFPYSMGWHGAPFNGEENQHWQLHAHFYPPLLRSATVRKFMVGYEMLAETQRDLTAEQAAERLRAVSDIHFRESGV
# Assay: Galactose-1-phosphate uridylyltransferase (GalT) activity of the enzyme liquid
# Assay type: biochemical, E. coli
# Details: galactose-1-phosphate uridylyltransferase activity of purified enzyme liquid, method by Takeda et al.
# Method: E. coli (JM109 strain) (from Takara Bio) was transformed with a pTrc-GalT plasmid (JP-A-2002-335988) in which a gene encoding E. coli-derived GalT has been inserted. The transformed cells were inoculated to a 2×YT medium (50 mL) containing 100 μg/mL ampicillin, followed by shake culturing at 37° C. When the number of the cells reached 1×10^8 cells/mL, IPTG was added to the culture so as to adjust the final concentration to 1 mM, and shake culture was continued for further five hours. After completion of culturing, cells were collected through centrifugation (9,000×g, 20 min) and suspended in a buffer (50 mM HEPES-NaOH (pH: 8.0), 0.1 mM zinc sulfate, 10 mM 2-mercaptoethanol, and 50 mM sodium chloride) […]). The cells were disrupted through ultrasonication, and the product was centrifuged (20,000×g, 10 min), to thereby remove cell residues.
# The thus-produced fraction was employed as an enzyme liquid in the following synthesis reactions. The galactose-1-phosphate uridylyltransferase (GalT) activity of the enzyme liquid was determined (Table 1). In the present invention, GalT activity was determined through a method by Takeda et al. (JP-A-2002-335988). The thus-yielded galactose-1-phosphate uridylyltransferase is identical to hexose-1-phosphate uridylyltransferase and catalyzes the same reaction (E.C.2.7.7.12).
molecule,measurement,value
B1,Enzymatic activity,46.7 units/mg protein
